According to patent EP0925358B1:

What follows are substances tested against human CXC Chemokine Receptor 3 (CXCR3) (human) (UniProt P49682) (assay: cell-based or functional assay).
Chain of UniProt P49682 (P49682 whole entry, form in doubt): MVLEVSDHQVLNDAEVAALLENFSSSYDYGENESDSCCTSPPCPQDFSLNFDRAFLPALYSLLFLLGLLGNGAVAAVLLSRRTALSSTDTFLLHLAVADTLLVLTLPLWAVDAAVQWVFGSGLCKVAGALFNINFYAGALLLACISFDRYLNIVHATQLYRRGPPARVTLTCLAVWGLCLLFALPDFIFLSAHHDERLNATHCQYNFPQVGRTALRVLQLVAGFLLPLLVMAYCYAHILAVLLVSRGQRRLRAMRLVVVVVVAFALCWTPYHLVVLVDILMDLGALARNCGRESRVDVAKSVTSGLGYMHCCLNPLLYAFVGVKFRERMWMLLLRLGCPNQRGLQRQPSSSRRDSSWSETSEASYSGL

[Ca2+]i changes in IP-10/MigR transfectants, > 100 nM:
ENA78 (epithelial-derived neutrophil-activating peptide 78) (from UniProt P42830 37-114) (ligand)
GCP-2 (granulocyte chemotactic protein-2) (from UniProt P80162 38-114) (ligand)
GROα (from UniProt P09341 35-107) (ligand)
I309 (from UniProt P22362 24-96) (ligand)
IL-8 (from UniProt P10145 28-99) (ligand)
MCP-1 (monocyte chemotactic protein-1) (from UniProt P13500 24-99) (ligand)
MCP-2 (from UniProt P80075 24-99) (ligand)
MCP-3 (from UniProt P80098 24-99) (ligand)
MCP-4 (from UniProt Q99616 24-98) (ligand)
MIP-1α (macrophage inflammatory protein-1α) (from UniProt P10147 24-92) (ligand)
MIP-1β (from UniProt P13236 24-92) (ligand)
NAP-2 (neutrophil-activating protein-2) (from UniProt P02775 59-128) (ligand)
PF4 (platelet factor 4) (from UniProt P02776 32-101) (ligand)
RANTES (regulated on activation, normal T cell expressed and secreted) (from UniProt P13501 24-91) (ligand)
eotaxin (from UniProt P51671 24-97) (ligand)
lymphotactin (from UniProt P47992 22-114) (ligand)
